Data on three proteins can be found in publication PMC3113324, “AKAP5 and AKAP12 Form Homo-oligomers” (Journal of Molecular Signaling, 2011).

The data set concerns the molecule itself. Put plainly: SDS-PAGE (SDS-resistant oligomers); purified His-tagged proteins resolved on SDS-PAGE without urea; Coomassie staining and immunoblotting.

B1: His-tagged AKAP12 (1-840) (domain or fragment, human, UniProt Q02952 1-840, looked up)
chain: MGAGSSTEQRSPEQPPEGSSTPAEPEPSGGGPSAEAAPDTTADPAIAASDPATKLLQKNGQLSTINGVAEQDELSLQEGDLNGQKGALNGQGALNSQEEEEVIVTEVGQRDSEDVSKRDSDKEMATKSAVVHDITDDGQEETPEIIEQIPSSESNLEELTQPTESQANDIGFKKVFKFVGFKFTVKKDKTEKPDTVQLLTVKKDEGEGAAGAGDHKDPSLGAGEAASKESEPKQSTEKPEETLKREQSHAEISPPAESGQAVEECKEEGEEKQEKEPSKSAESPTSPVTSETGSTFKKFFTQGWAGWRKKTSFRKPKEDEVEASEKKKEQEPEKVDTEEDGKAEVASEKLTASEQAHPQEPAESAHEPRLSAEYEKVELPSEEQVSGSQGPSEEKPAPLATEVFDEKIEVHQEEVVAEVHVSTVEERTEEQKTEVEETAGSVPAEELVEMDAEPQEAEPAKELVKLKETCVSGEDPTQGADLSPDEKVLSKPPEGVVSEVEMLSSQERMKVQGSPLKKLFTSTGLKKLSGKKQKGKRGGGDEESGEHTQVPADSPDSQEEQKGESSASSPEEPEEITCLEKGLAEVQQDGEAEEGATSDGEKKREGVTPWASFKKMVTPKKRVRRPSESDKEDELDKVKSATLSSTESTASEMQEEMKGSVEEPKPEEPKRKVDTSVSWEALICVGSSKKRARRGSSSDEEGGPKAMGGDHQKADEAGKDKETGTDGILAGSQEHDPGQGSSSPEQAGSPTEGEGVSTWESFKRLVTPRKKSKSKLEEKSEDSIAGSGVEHSTPDTEPGKEESWVSIKKFIPGRRKKRPDGKQEQAPVEDAGPTGANEDD
notes: AKAP12, human, N-terminal fragment, residues 1-840, in pET28b(+); also called N-terminal (1-840) fragment of AKAP12; source: E. coli, purified (Ni-NTA)
In the case of B1, the “stoichiometry N” value is 2.

B2: His-tagged AKAP12 (840-1782) (domain or fragment, human, UniProt Q02952 840-1782, looked up)
chain: DSDVPAVVPLSEYDAVEREKMEAQQAQKSAEQPEQKAATEVSKELSESQVHMMAAAVADGTRAATIIEERSPSWISASVTEPLEQVEAEAALLTEEVLEREVIAEEEPPTVTEPLPENREARGDTVVSEAELTPEAVTAAETAGPLGAEEGTEASAAEETTEMVSAVSQLTDSPDTTEEATPVQEVEGGVPDIEEQERRTQEVLQAVAEKVKEESQLPGTGGPEDVLQPVQRAEAERPEEQAEASGLKKETDVVLKVDAQEAKTEPFTQGKVVGQTTPESFEKAPQVTESIESSELVTTCQAETLAGVKSQEMVMEQAIPPDSVETPTDSETDGSTPVADFDAPGTTQKDEIVEIHEENEVASGTQSGGTEAEAVPAQKERPPAPSSFVFQEETKEQSKMEDTLEHTDKEVSVETVSILSKTEGTQEADQYADEKTKDVPFFEGLEGSIDTGITVSREKVTEVALKGEGTEEAECKKDDALELQSHAKSPPSPVEREMVVQVEREKTEAEPTHVNEEKLEHETAVTVSEEVSKQLLQTVNVPIIDGAKEVSSLEGSPPPCLGQEEAVCTKIQVQSSEASFTLTAAAEEEKVLGETANILETGETLEPAGAHLVLEEKSSEKNEDFAAHPGEDAVPTGPDCQAKSTPVIVSATTKKGLSSDLEGEKTTSLKWKSDEVDEQVACQEVKVSVAIEDLEPENGILELETKSSKLVQNIIQTAVDQFVRTEETATEMLTSELQTQAHVIKADSQDAGQETEKEGEEPQASAQDETPITSAKEESESTAVGQAHSDISKDMSEASEKTMTVEVEGSTVNDQQLEEVVLPSEEEGGGAGTKSVPEDDGHALLAERIEKSLVEPKEDEKGDDVDDPENQNSALADTDASGGLTKESPDTNGPKQKEKEDAQEVELQEGKVHSESDKAITPQAQEELQKQERESAKSELTES
notes: AKAP12, human, C-terminal fragment, residues 840-1782, in pET28b(+); also called C-terminal (840-1782) fragment of AKAP12; source: E. coli, purified (Ni-NTA)
For B2, the “stoichiometry N” value was 2.

B3: His-tagged human AKAP12 (natural protein, UniProt Q02952 1-1782, looked up)
chain: MGAGSSTEQRSPEQPPEGSSTPAEPEPSGGGPSAEAAPDTTADPAIAASDPATKLLQKNGQLSTINGVAEQDELSLQEGDLNGQKGALNGQGALNSQEEEEVIVTEVGQRDSEDVSKRDSDKEMATKSAVVHDITDDGQEETPEIIEQIPSSESNLEELTQPTESQANDIGFKKVFKFVGFKFTVKKDKTEKPDTVQLLTVKKDEGEGAAGAGDHKDPSLGAGEAASKESEPKQSTEKPEETLKREQSHAEISPPAESGQAVEECKEEGEEKQEKEPSKSAESPTSPVTSETGSTFKKFFTQGWAGWRKKTSFRKPKEDEVEASEKKKEQEPEKVDTEEDGKAEVASEKLTASEQAHPQEPAESAHEPRLSAEYEKVELPSEEQVSGSQGPSEEKPAPLATEVFDEKIEVHQEEVVAEVHVSTVEERTEEQKTEVEETAGSVPAEELVEMDAEPQEAEPAKELVKLKETCVSGEDPTQGADLSPDEKVLSKPPEGVVSEVEMLSSQERMKVQGSPLKKLFTSTGLKKLSGKKQKGKRGGGDEESGEHTQVPADSPDSQEEQKGESSASSPEEPEEITCLEKGLAEVQQDGEAEEGATSDGEKKREGVTPWASFKKMVTPKKRVRRPSESDKEDELDKVKSATLSSTESTASEMQEEMKGSVEEPKPEEPKRKVDTSVSWEALICVGSSKKRARRGSSSDEEGGPKAMGGDHQKADEAGKDKETGTDGILAGSQEHDPGQGSSSPEQAGSPTEGEGVSTWESFKRLVTPRKKSKSKLEEKSEDSIAGSGVEHSTPDTEPGKEESWVSIKKFIPGRRKKRPDGKQEQAPVEDAGPTGANEDDSDVPAVVPLSEYDAVEREKMEAQQAQKSAEQPEQKAATEVSKELSESQVHMMAAAVADGTRAATIIEERSPSWISASVTEPLEQVEAEAALLTEEVLEREVIAEEEPPTVTEPLPENREARGDTVVSEAELTPEAVTAAETAGPLGAEEGTEASAAEETTEMVSAVSQLTDSPDTTEEATPVQEVEGGVPDIEEQERRTQEVLQAVAEKVKEESQLPGTGGPEDVLQPVQRAEAERPEEQAEASGLKKETDVVLKVDAQEAKTEPFTQGKVVGQTTPESFEKAPQVTESIESSELVTTCQAETLAGVKSQEMVMEQAIPPDSVETPTDSETDGSTPVADFDAPGTTQKDEIVEIHEENEVASGTQSGGTEAEAVPAQKERPPAPSSFVFQEETKEQSKMEDTLEHTDKEVSVETVSILSKTEGTQEADQYADEKTKDVPFFEGLEGSIDTGITVSREKVTEVALKGEGTEEAECKKDDALELQSHAKSPPSPVEREMVVQVEREKTEAEPTHVNEEKLEHETAVTVSEEVSKQLLQTVNVPIIDGAKEVSSLEGSPPPCLGQEEAVCTKIQVQSSEASFTLTAAAEEEKVLGETANILETGETLEPAGAHLVLEEKSSEKNEDFAAHPGEDAVPTGPDCQAKSTPVIVSATTKKGLSSDLEGEKTTSLKWKSDEVDEQVACQEVKVSVAIEDLEPENGILELETKSSKLVQNIIQTAVDQFVRTEETATEMLTSELQTQAHVIKADSQDAGQETEKEGEEPQASAQDETPITSAKEESESTAVGQAHSDISKDMSEASEKTMTVEVEGSTVNDQQLEEVVLPSEEEGGGAGTKSVPEDDGHALLAERIEKSLVEPKEDEKGDDVDDPENQNSALADTDASGGLTKESPDTNGPKQKEKEDAQEVELQEGKVHSESDKAITPQAQEELQKQERESAKSELTES
notes: A-kinase-anchoring protein 12 (AKAP12, gravin, SSECKS), human, full length (1-1782), calculated MW 191.5 kDa; also called gravin; SSECKS; source: E. coli, purified by gel filtration chromatography (Superose 12)
With B3, the “stoichiometry N” value amounted to 2.

The term stoichiometry N denotes the number of molecules, sites or subunits per partner or assembly.
